Broadly, the Kd is the free concentration of one partner at which half of the binding sites on the other are occupied at equilibrium, for simple one-to-one binding. As a reminder, the koff is the rate constant with which the complex falls apart. As a reminder, the kon is a measure of how fast the partners come together.

The source of these data is patent US20130295112A1 (AbbVie / Abbott, published 2013).

Assay [1] concerns the target T1, recombinant rat beta nerve growth factor (rat, UniProt P25427 122-241). In words: cell-based or functional assay.
In assay [2] the target is recombinant human beta nerve growth factor (human) (UniProt P01138). Description: cell-based or functional assay.
Assay [3] deals with T1, recombinant rat beta nerve growth factor. Description: cell-based or functional assay. This is another data set of the same source.
Assay [4] addresses recombinant mouse NGF (mouse, UniProt P01139 122-241, limits assumed). In words: cell-based or functional assay.
Assay [5] has as its target T1, recombinant rat beta nerve growth factor. In words: cell-based or functional assay. The source holds these as a separate data set.
Assay [6] deals with T2, human neurotrophin 3 (NT3) (human, UniProt P20783 139-257).
T2 construct: Bought protein coated on ELISA plates
T2 sequence (looked up): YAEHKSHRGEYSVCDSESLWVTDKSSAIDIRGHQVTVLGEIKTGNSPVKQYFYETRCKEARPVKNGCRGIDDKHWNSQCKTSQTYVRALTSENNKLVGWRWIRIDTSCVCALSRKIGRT
In words: ELISA, plates coated with human NT3, PG110 titrated, fluorescence read-out. How it is done:
(§1) The selectivity profile of PG110 binding to human neurotrophins was determined using an Enzyme-Linked ImmunoSorbent Assay (ELISA) binding assay. ELISA plates were coated with 100 ng/well of either human NGF (R&D Systems, Cat. No. 256-GF), brain-derived neurotrophic factor (BDNF) (R&D Systems, Cat. No. 248-BD), neurotrophin 3 (NT3) (R&D Systems, Cat. No. 267-N3) or neurotrophin 4 (NT4) (R&D Systems, Cat. No. 268-N4). PG110 was added to neurotrophin-coated wells in the concentration range 3 pM-3 nM. After washing (PBS in 0.5% (v/v) Tween 20, pH 7.3), PG110 binding was detected using a biotinylated anti-human IgG antibody (Rockland Immunochemical Inc., Cat. No. 609-1602) coupled with streptavidin-linked alkaline phosphatase (Sigma Aldrich, Cat. No. S2890), followed by development of a color reaction by addition of 4-methylumbelliferyl phosphate (Sigma Aldrich, Cat. No. M3168). The reaction product was quantified using a fluorimeter (excitation at 360 nm; emission at 440 nm).
For orientation: In an ELISA, binding on a coated surface is turned into a signal by an enzyme label.

Assay [7] concerns the target T3, human neurotrophin 4 (NT4) (human, UniProt P34130 81-210).
T3 construct: Bought protein coated on ELISA plates
T3 sequence (looked up): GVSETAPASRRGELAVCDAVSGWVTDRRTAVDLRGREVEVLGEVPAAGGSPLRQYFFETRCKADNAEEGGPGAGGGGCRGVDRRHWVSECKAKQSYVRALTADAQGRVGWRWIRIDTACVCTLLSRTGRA
In words: ELISA, plates coated with human NT4, PG110 titrated, fluorescence read-out. How it is done: as §1

For assay [8], the target named is T4, human brain-derived neurotrophic factor (BDNF) (human, UniProt P23560 129-247).
T4 construct: Bought protein coated on ELISA plates; also called human BDNF
T4 sequence (looked up): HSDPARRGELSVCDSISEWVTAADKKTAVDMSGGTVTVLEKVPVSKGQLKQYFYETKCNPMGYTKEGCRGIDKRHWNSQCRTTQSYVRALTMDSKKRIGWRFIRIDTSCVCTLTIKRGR
In words: ELISA, plates coated with human BDNF, PG110 titrated, fluorescence read-out. How it is done: as §1

In assay [9] the target is T1, recombinant rat beta nerve growth factor. In words: SPR (BIAcore), rrNGF immobilised on CM5 (60 RU), PG110 as analyte, 37 C, 1:1 Langmuir, mean of 3. An excerpt: BIAcore analysis was used to evaluate the binding kinetics of the interaction between PG110 and either recombinant rat NGF (rrNGF) or recombinant human NGF (rhNGF).
Recombinant human beta nerve growth factor (rhNGF) (R&D Systems, Cat. No. 256 GF/CF) or recombinant rat beta nerve growth factor (rrNGF) (R&D Systems, Cat. No. 556 GF/CF) was immobilized covalently on CM5 sensor chips (GE Healthcare, formerly Biacore AB, Uppsala, Sweden) via primary amine groups using the amine coupling kit (GE Healthcare), with HBSEP (10 mM 4-(2-hydroxyethyl)-1-piperazineethanesulfonic acid (HEPES), 150 mM NaCl, 3 mM ethylene-diamine-tetraacetic acid (EDTA) and 0.005% Tween® 20, pH 7.4) as running buffer. The sensor chip surface was activated by injection of a mixture of 400 mM N-(3-Dimethylaminopropyl)-N′-ethylcarbodiimide (EDC) and 100 mM N-Hydroxysuccinimide (NHS) (1:1, v/v) for 7 minutes at a flow rate of 10 μl/min. β-NGF (rh or rr) was diluted to 200 ng/ml in 10 mM sodium acetate pH 4.0 and the diluted solution was injected over the activated surface for various times to yield different surface densities. For quantitative interaction analyses, a surface density of 60 RU was prepared by injection of 50 μl diluted β-NGF (contact time 5 minutes). Non-reacted NHS esters were deactivated with 70 μl (contact time 7 minutes) ethanolamine solution (1 M, pH 8.5).

T1 sequence (P25427 122-241 limits assumed): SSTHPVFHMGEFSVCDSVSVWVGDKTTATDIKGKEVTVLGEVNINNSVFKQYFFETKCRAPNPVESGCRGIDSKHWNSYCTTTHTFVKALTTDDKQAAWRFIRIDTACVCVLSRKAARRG
Chain of recombinant human beta nerve growth factor (human) (P01138 122-241 limits assumed): as the sequence (P25427 122-241 limits assumed) above, with T3S, V6I, M9R, T37M, A60D, E65D, T92M, D94G, A117V, G120A counted along it
Chain of recombinant mouse NGF (P01139 122-241 limits assumed): as the sequence (P25427 122-241 limits assumed) above, with G40A, K50R, P61S, D94E, A117T counted along it

Consider rat αD11 antibody (precursor of PG110), for which, in [1], the IC50, TF1 cell proliferation mediated by rat NGF (MTT), geomean, n=3; Batch 1 came out at 0.0448 µg/mL and the IC50, TF1 cell proliferation mediated by rat NGF (MTT), n=1; Batch 2 came to 0.0549 µg/mL. In [2], the IC50, TF1 cell proliferation mediated by human NGF (MTT), geomean, n=3; Batch 1 came to 0.0637 µg/mL and the IC50, TF1 cell proliferation mediated by human NGF (MTT), n=1; Batch 2 came out at 0.107 µg/mL.

B1: PG110 (humanized anti-NGF antibody, Hu-alphaD11 variable regions with Ser-to-Pro hinge-mutated human IgG4 constant region and human kappa light chain) (antibody, V domains shown)
VH: EVQLVESGGGLVQPGGSLRLSCAASGFSLTNNNVNWVRQAPGKGLEWVGGVWAGGATDYNSALKSRFTISRDNSKNTAYLQMNSLRAEDTAVYYCARDGGYSSSTLYAMDAWGQGTLVTVSS
VL: DIQMTQSPSSLSASVGDRVTITCRASEDIYNALAWYQQKPGKAPKLLIYNTDTLHTGVPSRFSGSGSGTDYTLTISSLQPEDFATYFCQHYFHYPRTFGQGTKVEIKR
notes: expressed in CHO cells; also called PG110 antibody; PG110 mAb
As for B1, the “IC50, TF-1 cell proliferation stimulated by 10 ng/ml rat recombinant NGF (MTT), geomean, n=5” value in assay [3] came to 0.0278 µg/mL. The “IC50, TF-1 cell proliferation stimulated by 10 ng/ml mouse recombinant NGF (MTT), geomean, n=3” value in assay [4] amounted to 0.0308 µg/mL. The “IC50, TF1 cell proliferation mediated by rat NGF (MTT), geomean, n=2” value in assay [5] is 0.0262 µg/mL. Moreover, the binding result in assay [6], in assay [7] and in assay [8] was “no binding” in each case. The Kd in assay [9] was 92 pM. The koff in [9] was 1.5e-05 s⁻¹. For the same molecule, the kon in assay [9] came to 170000 M⁻¹ s⁻¹.
